The source of these data is article PMC8904830, “Differential recognition of canonical NF-κB dimers by Importin α3” (Nature Communications, 2022).

The labels stand for the following.
B2: NF-κB p65 (residues 1-306) (domain or fragment, human, UniProt Q04206 1-306, looked up)
chain: MDELFPLIFPAEPAQASGPYVEIIEQPKQRGMRFRYKCEGRSAGSIPGERSTDTTKTHPTIKINGYTGPGTVRISLVTKDPPHRPHPHELVGKDCRDGFYEAELCPDRCIHSFQNLGIQCVKKRDLEQAISQRIQTNNNPFQVPIEEQRGDYDLNAVRLCFQVTVRDPSGRPLRLPPVLSHPIFDNRAPNTAELKICRVNRNSGSCLGGDEIFLLCDKVQKEDIEVYFTGPGWEARGSFSQADVHRQVAIVFRTPPYADPSLQAPVRVSMQLRRPSDRELSEPMEFQYLPDTDDRHRIEEKRKRTY
notes: NF-κB p65 (RelA), human, residues 1-306 (Rel homology region with the C-terminal NLS), untagged; also called RelA; p65 RHR; source: E. coli BL21 DE3, purified (polyethyleneimine and ammonium sulfate precipitation, HiTrap SP, Superdex 200)
B5: ΔNLS-p50 (residues 41-351) (domain or fragment, human, UniProt P19838 41-351, looked up)
chain: GPYLQILEQPKQRGFRFRYVCEGPSHGGLPGASSEKNKKSYPQVKICNYVGPAKVIVQLVTNGKNIHLHAHSLVGKHCEDGICTVTAGPKDMVVGFANLGILHVTKKKVFETLEARMTEACIRGYNPGLLVHPDLAYLQAEGGGDRQLGDREKELIRQAALQQTKEMDLSVVRLMFTAFLPDSTGSFTRRLEPVVSDAIYDSKAPNASNLKIVRMDRTAGCVTGGEEIYLLCDKVQKDDIQIRFYEEEENGGVWEGFGDFSPTDVHRQFAIVFKTPKYKDINITKPASVFVQLRRKSDLETSEPKPFLYYP
notes: NF-κB p50, human, residues 41-351, lacking the C-terminal NLS, untagged; also called p50-ΔNLS; source: E. coli BL21 DE3, purified (polyethyleneimine and ammonium sulfate precipitation, HiTrap SP, Superdex 200)
B7: NF-κB p50 (residues 1-366) (domain or fragment, human, UniProt P19838 1-366, looked up)
chain: MAEDDPYLGRPEQMFHLDPSLTHTIFNPEVFQPQMALPTDGPYLQILEQPKQRGFRFRYVCEGPSHGGLPGASSEKNKKSYPQVKICNYVGPAKVIVQLVTNGKNIHLHAHSLVGKHCEDGICTVTAGPKDMVVGFANLGILHVTKKKVFETLEARMTEACIRGYNPGLLVHPDLAYLQAEGGGDRQLGDREKELIRQAALQQTKEMDLSVVRLMFTAFLPDSTGSFTRRLEPVVSDAIYDSKAPNASNLKIVRMDRTAGCVTGGEEIYLLCDKVQKDDIQIRFYEEEENGGVWEGFGDFSPTDVHRQFAIVFKTPKYKDINITKPASVFVQLRRKSDLETSEPKPFLYYPEIKDKEEVQRKRQKL
notes: NF-κB p50, human, residues 1-366 (Rel homology region with the C-terminal NLS); also called p50 RHR; source: E. coli BL21 DE3, purified (Glutathione Resin, PreScission cleavage, Superdex 200)

The target of data set [1] is ΔIBB-importin α1 (tag not told for this experiment) (human) (UniProt P52292). The experiment in a line: native gel or EMSA; increasing molar excess of pre-assembled p50/p65 added to a fixed 10 μg (~108 pmoles) of ΔIBB-importin α1 or α3; 1.5% agarose gel, 4 °C, 2 h at 50 V, Coomassie. Background: A gel shift assay detects complexes by their altered migration in electrophoresis.

Data set [2] addresses ΔIBB-importin α3 (tag not told for these experiments) (human) (UniProt O00629). The description is as above.
Data set [3] addresses T1, NF-κB p50/p65 heterodimer (human, UniProt P19838 1-366; Q04206 1-306).
T1 construct: NF-κB p50, human, residues 1-366; NF-κB p65 (RelA), human, residues 1-306, untagged; also called wild-type NF-κB; source: subunits from E. coli BL21 DE3, purified; assembled by incubating p50:p65 at 1:1.5 molar ratio; copies: 1 + 1
In words: SEC-SAXS; pre-assembled NF-κB dimer:ΔIBB-importin α3 complexes at 4.5-6.6 mg/ml on Superdex 200 10/300 GL; 20 mM Tris-HCl pH 7.0-7.5, 0.15-0.175 M NaCl, glycerol, 0.5 mM TCEP, 4 °C; mass from volume of correlation. In general terms: In gel filtration, larger molecules generally elute earlier.

Data set [4] concerns the target NF-κB p65/p65 homodimer (human) (UniProt Q04206). Described as above.
Data set [5] addresses NF-κB p50/p50 homodimer (human) (UniProt P19838). The data set is described as above.
In data set [6] the target is ΔDBD-p50/p65 heterodimer (human) (UniProt P19838). In words: SEC; trimeric complex assembled from purified ΔIBB-importin α3 and ΔDBD-p50/p65; peak fraction analysed by SDS-PAGE and native agarose gel.
Data set [7] concerns the target p50/ΔNLS-p65 heterodimer (human) (UniProt P19838). In words: ELISA; NF-κB hetero/homodimers (200 ng) coated on MaxiSorp plates; His-importin α 1000 to 0 nM in PBST, room temperature 1 h; anti-6xHis-HRP; one-site specific binding fit. (In an ELISA, binding on a coated surface is turned into a signal by an enzyme label.)
Data set [8] has as its target T1, NF-κB p50/p65 heterodimer. The description is as above.
Data set [9] concerns the target NF-κB p65/p65 homodimer (human) (UniProt Q04206). The data set is described as above.
In data set [10] the target is NF-κB p50/p50 homodimer (human) (UniProt P19838). The description is as above.
Data set [11] concerns the molecule itself. In words: SEC; homodimeric NF-κB complexes concentrated and injected on Superdex 200 16/60 in 20 mM Tris-HCl pH 7.5, 150 mM NaCl, 5 mM β-mercaptoethanol, 2% glycerol.
Data set [12] concerns the target B7. The experiment in a line: assembly of heterodimers by co-incubation; purified p50 and p65 constructs incubated at 1:1.5 p50:p65 molar ratio, 25 °C 30 min, 37 °C 1 h, centrifuged at 12,000 x g. The conditions noted are these: both partners purified.
In data set [13] the target is B5. The data set is described as above. The conditions noted are these: both partners purified.
Data set [14] has as its target T1, NF-κB p50/p65 heterodimer. In words: native gel or EMSA; purified IκBα titrated against ~130 pmoles of pre-formed p50/p65 (Fig. 4a lanes 5-10); 1 h at 4 °C; 1.5% agarose gel. The conditions noted are these: both partners purified.
In data set [15] the target is B2. In words: assembly of heterodimers by co-incubation; purified p50 and p65 constructs incubated at 1:1.5 p50:p65 molar ratio, 25 °C 30 min, 37 °C 1 h, centrifuged at 12,000 x g. The conditions noted are these: both partners purified.

Sequence of ΔIBB-importin α3 (tag not told for these experiments) (human) (O00629 68-487, stated change not applied): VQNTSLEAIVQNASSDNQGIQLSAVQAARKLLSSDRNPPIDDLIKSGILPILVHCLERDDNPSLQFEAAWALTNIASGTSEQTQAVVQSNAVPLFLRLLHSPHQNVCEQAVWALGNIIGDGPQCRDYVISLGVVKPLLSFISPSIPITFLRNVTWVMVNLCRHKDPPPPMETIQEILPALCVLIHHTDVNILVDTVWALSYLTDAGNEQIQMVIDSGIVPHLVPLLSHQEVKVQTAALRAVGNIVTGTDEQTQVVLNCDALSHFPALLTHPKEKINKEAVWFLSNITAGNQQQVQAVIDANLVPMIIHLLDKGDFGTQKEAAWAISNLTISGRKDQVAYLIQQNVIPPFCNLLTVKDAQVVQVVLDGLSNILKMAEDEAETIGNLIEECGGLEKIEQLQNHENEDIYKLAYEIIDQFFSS

In the case of “NF-κB p50/p65 heterodimer (from UniProt P19838 1-366; Q04206 1-306) (complex)”, the stoichiometry N in data set [1] and in data set [2] was 1 in each case.

Consider “ΔIBB-importin α3 (tag not told for these experiments) (from UniProt O00629 68-487) (domain or fragment)”, for which the stoichiometry N in [3] was found to be 1; in [4], 1; in data set [5], 2; in [6] it was 1.

Regarding “His-ΔIBB-importin α3 (from UniProt O00629 68-487) (domain or fragment)”, the Kd in data set [7] was 59.6 nM; in data set [8], 45.8 nM; in [9] it was 35.2 nM; in data set [10], 15.4 nM.

B1: ΔDBD-p65 (residues 191-316) (domain or fragment, human, UniProt Q04206 191-316, looked up)
chain: TAELKICRVNRNSGSCLGGDEIFLLCDKVQKEDIEVYFTGPGWEARGSFSQADVHRQVAIVFRTPPYADPSLQAPVRVSMQLRRPSDRELSEPMEFQYLPDTDDRHRIEEKRKRTYETFKSIMKKS
notes: also called p65 dimerization domain; source: E. coli BL21 DE3, purified (Glutathione Resin, PreScission cleavage, Superdex 200)
Consider B1, for which the binding result in data set [11] is reported as “binds”.

For B2, the binding result in [12], in data set [13] and in [11] was “binds” each time.

B3: IκBα (residues 67-287) (domain or fragment, UniProt P25963 67-287, looked up)
chain: KQQLTEDGDSFLHLAIIHEEKALTMEVIRQVKGDLAFLNFQNNLQQTPLHLAVITNQPEIAEALLGAGCDPELRDFRGNTPLHLACEQGCLASVGVLTQSCTTPHLHSILKATNYNGHTCLHLASIHGYLGIVELLVSLGADVNAQEPCNGRTALHLAVDLQNPDLVSLLLKCGADVNRVTYQGYSPYQLTWGRPSTRIQQQLGQLTLENLQMLPESEDEE
notes: IκBα, residues 67-287, untagged; source: recombinant, expressed and purified as previously described (pET-11a)
Regarding B3, the “stoichiometry N” value in [14] was 1.

B4: ΔNLS-p65 (residues 1-290) (domain or fragment, human, UniProt Q04206 1-290, looked up)
chain: MDELFPLIFPAEPAQASGPYVEIIEQPKQRGMRFRYKCEGRSAGSIPGERSTDTTKTHPTIKINGYTGPGTVRISLVTKDPPHRPHPHELVGKDCRDGFYEAELCPDRCIHSFQNLGIQCVKKRDLEQAISQRIQTNNNPFQVPIEEQRGDYDLNAVRLCFQVTVRDPSGRPLRLPPVLSHPIFDNRAPNTAELKICRVNRNSGSCLGGDEIFLLCDKVQKEDIEVYFTGPGWEARGSFSQADVHRQVAIVFRTPPYADPSLQAPVRVSMQLRRPSDRELSEPMEFQYLP
notes: NF-κB p65 (RelA), human, residues 1-290 (stop codon at position D291), lacking the C-terminal NLS, untagged; source: E. coli BL21 DE3, purified (polyethyleneimine and ammonium sulfate precipitation, HiTrap SP, Superdex 200)
Take B4: the binding result in data set [12], in data set [13] and in data set [11] was “binds” each time.

As for B5, in data set [11], the binding result is reported as “binds”.

B6: ΔDBD-p50 (residues 243-366) (domain or fragment, human, UniProt P19838 243-366, looked up)
chain: KAPNASNLKIVRMDRTAGCVTGGEEIYLLCDKVQKDDIQIRFYEEEENGGVWEGFGDFSPTDVHRQFAIVFKTPKYKDINITKPASVFVQLRRKSDLETSEPKPFLYYPEIKDKEEVQRKRQKL
notes: also called p50 dimerization domain; source: E. coli BL21 DE3, purified (Glutathione Resin, PreScission cleavage, Superdex 200)
Consider B6, for which the binding result in data set [15] and in [11] was “binds” in each case.

With B7, the binding result in data set [11] was “binds”.

What is called stoichiometry N is the number of molecules, sites or subunits per partner or assembly. The Kd is the constant that tells how readily two partners part at equilibrium. Low readings indicate higher affinity, high ones lower affinity.
